This is an account of results in IntAct's records for PubMed 25910212.

First the molecules themselves.
B1: Chorion-specific transcription factor GCMb (Homo sapiens), O75603 (parent)
chain: MPAAAVQEAVGVCSYGMQLSWDINDPQMPQELALFDQFREWPDGYVRFIYSSDEKKAQRHLSGWAMRNTNNHNGHILKKSCLGVVVCTQACTLPDGSRLQLRPAICDKARLKQQKKACPNCHSALELIPCRGHSGYPVTNFWRLDGNAIFFQAKGVHDHPRPESKSETEARRSAIKRQMASFYQPQKKRIRESEAEENQDSSGHFSNIPPLENPEDFDIVTETSFPIPGQPCPSFPKSDVYKATCDLATFQGDKMPPFQKYSSPRIYLPRPPCSYELANPGYTNSSPYPTLYKDSTSIPNDTDWVHLNTLQCNVNSYSSYERSFDFTNKQHGWKPALGKPSLVERTNHGQFQAMATRPYYNPELPCRYLTTPPPGAPALQTVITTTTKVSYQAYQPPAMKYSDSVREVKSLSSCNYAPEDTGMSVYPEPWGPPVTVTRAASPSGPPPMKIAGDCRAIRPTVAIPHEPVSSRTDEAETWDVCLSGLGSAVSYSDRVGPFFTYNNEDF
B2: Adiponectin (Homo sapiens), Q15848 (parent)
chain: MLLLGAVLLLLALPGHDQETTTQGPGVLLPLPKGACTGWMAGIPGHPGHNGAPGRDGRDGTPGEKGEKGDPGLIGPKGDIGETGVPGAEGPRGFPGIQGRKGEPGEGAYVYRSAFSVGLETYVTIPNMPIRFTKIFYNQQNHYDGSTGKFHCNIPGLYYFAYHITVYMKDVKVSLFKKDKAMLFTYDQYQENNVDQASGSVLLHLEVGDQVWLQVYGEGERNGLYADNDNDSTFTGFLLYHDTN
B3: U4/U6 small nuclear ribonucleoprotein Prp31 (Homo sapiens), Q8WWY3 (parent)
chain: MSLADELLADLEEAAEEEEGGSYGEEEEEPAIEDVQEETQLDLSGDSVKTIAKLWDSKMFAEIMMKIEEYISKQAKASEVMGPVEAAPEYRVIVDANNLTVEIENELNIIHKFIRDKYSKRFPELESLVPNALDYIRTVKELGNSLDKCKNNENLQQILTNATIMVVSVTASTTQGQQLSEEELERLEEACDMALELNASKHRIYEYVESRMSFIAPNLSIIIGASTAAKIMGVAGGLTNLSKMPACNIMLLGAQRKTLSGFSSTSVLPHTGYIYHSDIVQSLPPDLRRKAARLVAAKCTLAARVDSFHESTEGKVGYELKDEIERKFDKWQEPPPVKQVKPLPAPLDGQRKKRGGRRYRKMKERLGLTEIRKQANRMSFGEIEEDAYQEDLGFSLGHLGKSGSGRVRQTQVNEATKARISKTLQRTLQKQSVVYGGKSTIRDRSSGTASSVAFTPLQGLEIVNPQAAEKKVAEANQKYFSSMAEFLKVKGEKSGLMST
partner: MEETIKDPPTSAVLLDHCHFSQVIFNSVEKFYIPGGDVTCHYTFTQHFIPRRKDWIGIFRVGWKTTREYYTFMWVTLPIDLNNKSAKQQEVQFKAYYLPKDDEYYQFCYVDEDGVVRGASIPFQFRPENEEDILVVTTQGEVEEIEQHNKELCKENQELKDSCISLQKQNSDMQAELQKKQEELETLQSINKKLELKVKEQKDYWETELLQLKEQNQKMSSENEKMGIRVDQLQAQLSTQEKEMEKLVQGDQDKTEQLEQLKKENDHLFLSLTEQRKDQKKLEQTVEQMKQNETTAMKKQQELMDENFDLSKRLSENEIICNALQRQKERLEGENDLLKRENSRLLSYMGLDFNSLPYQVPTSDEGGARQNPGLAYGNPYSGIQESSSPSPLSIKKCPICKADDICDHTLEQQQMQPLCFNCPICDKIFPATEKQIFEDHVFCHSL
B4: Low density lipoprotein receptor adapter protein 1 (Homo sapiens), Q5SW96 (parent)
chain: MDALKSAGRALIRSPSLAKQSWGGGGRHRKLPENWTDTRETLLEGMLFSLKYLGMTLVEQPKGEELSAAAIKRIVATAKASGKKLQKVTLKVSPRGIILTDNLTNQLIENVSIYRISYCTADKMHDKVFAYIAQSQHNQSLECHAFLCTKRKMAQAVTLTVAQAFKVAFEFWQVSKEEKEKRDKASQEGGDVLGARQDCTPSLKSLVATGNLLDLEETAKAPLSTVSANTTNMDEVPRPQALSGSSVVWELDDGLDEAFSRLAQSRTNPQVLDTGLTAQDMHYAQCLSPVDWDKPDSSGTEQDDLFSF
partner: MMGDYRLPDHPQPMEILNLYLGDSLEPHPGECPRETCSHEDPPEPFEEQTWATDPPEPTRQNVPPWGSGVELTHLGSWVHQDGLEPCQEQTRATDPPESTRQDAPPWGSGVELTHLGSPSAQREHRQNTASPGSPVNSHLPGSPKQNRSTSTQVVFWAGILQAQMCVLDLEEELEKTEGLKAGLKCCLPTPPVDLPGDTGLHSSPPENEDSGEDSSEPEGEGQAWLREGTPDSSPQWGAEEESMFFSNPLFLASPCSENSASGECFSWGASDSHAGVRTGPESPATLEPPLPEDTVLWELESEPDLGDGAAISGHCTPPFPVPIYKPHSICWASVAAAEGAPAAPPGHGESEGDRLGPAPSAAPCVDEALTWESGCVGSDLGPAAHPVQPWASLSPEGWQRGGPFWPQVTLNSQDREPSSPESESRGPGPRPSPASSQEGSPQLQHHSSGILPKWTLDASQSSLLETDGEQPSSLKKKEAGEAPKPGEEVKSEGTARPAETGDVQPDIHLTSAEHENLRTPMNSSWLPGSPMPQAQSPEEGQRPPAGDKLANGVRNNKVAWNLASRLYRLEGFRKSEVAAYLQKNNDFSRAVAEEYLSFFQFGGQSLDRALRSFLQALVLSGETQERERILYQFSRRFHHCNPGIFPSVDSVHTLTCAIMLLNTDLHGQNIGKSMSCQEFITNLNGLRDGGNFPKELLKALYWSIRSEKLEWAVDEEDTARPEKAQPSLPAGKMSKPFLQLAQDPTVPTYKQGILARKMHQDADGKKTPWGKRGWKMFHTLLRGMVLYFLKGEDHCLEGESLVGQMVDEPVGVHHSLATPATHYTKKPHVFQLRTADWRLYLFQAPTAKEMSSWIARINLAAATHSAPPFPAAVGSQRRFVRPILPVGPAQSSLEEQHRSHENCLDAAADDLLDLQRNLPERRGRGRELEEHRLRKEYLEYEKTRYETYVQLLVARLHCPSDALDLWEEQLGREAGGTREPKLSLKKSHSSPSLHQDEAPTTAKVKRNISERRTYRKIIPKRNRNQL
B5: Multifunctional procollagen lysine hydroxylase and glycosyltransferase LH3 (Homo sapiens), O60568 (parent)
chain: MTSSGPGPRFLLLLPLLLPPAASASDRPRGRDPVNPEKLLVITVATAETEGYLRFLRSAEFFNYTVRTLGLGEEWRGGDVARTVGGGQKVRWLKKEMEKYADREDMIIMFVDSYDVILAGSPTELLKKFVQSGSRLLFSAESFCWPEWGLAEQYPEVGTGKRFLNSGGFIGFATTIHQIVRQWKYKDDDDDQLFYTRLYLDPGLREKLSLNLDHKSRIFQNLNGALDEVVLKFDRNRVRIRNVAYDTLPIVVHGNGPTKLQLNYLGNYVPNGWTPEGGCGFCNQDRRTLPGGQPPPRVFLAVFVEQPTPFLPRFLQRLLLLDYPPDRVTLFLHNNEVFHEPHIADSWPQLQDHFSAVKLVGPEEALSPGEARDMAMDLCRQDPECEFYFSLDADAVLTNLQTLRILIEENRKVIAPMLSRHGKLWSNFWGALSPDEYYARSEDYVELVQRKRVGVWNVPYISQAYVIRGDTLRMELPQRDVFSGSDTDPDMAFCKSFRDKGIFLHLSNQHEFGRLLATSRYDTEHLHPDLWQIFDNPVDWKEQYIHENYSRALEGEGIVEQPCPDVYWFPLLSEQMCDELVAEMEHYGQWSGGRHEDSRLAGGYENVPTVDIHMKQVGYEDQWLQLLRTYVGPMTESLFPGYHTKARAVMNFVVRYRPDEQPSLRPHHDSSTFTLNVALNHKGLDYEGGGCRFLRYDCVISSPRKGWALLHPGRLTHYHEGLPTTWGTRYIMVSFVDP

The first test covers variants of B1. The following applies: with crx_human CRX.
Turning to G203S, the “effect of a mutation on the interaction” value was “with no effect”.
As to R47L, the “effect of a mutation on the interaction” value is listed as “with no effect”.
As for G63S, the “effect of a mutation on the interaction” value is reported as “with no effect”.

The next test covers variants of B1. The following applies: with RBPMS.
As to G203S, the “effect of a mutation on the interaction” value was “with no effect”.
Still for that read-out and setting: to R47L belongs “with no effect”; to G63S, “disrupting interaction strength”.

In a further test the parent is B2. The following applies: with bni3l_human BNIP3L.
For I164T, the “effect of a mutation on the interaction” value is “with no effect”.
Still for that read-out and setting: to Y111H belongs “with no effect”.

The variants in another test derive from B2. The following applies: with sgta_human SGTA.
With I164T, the “effect of a mutation on the interaction” value was “with no effect”.
As for Y111H, the “effect of a mutation on the interaction” value is on record as “with no effect”.

Variants of B3 are the subject of the next test. The following applies: with caco2_human CALCOCO2, Q13137.
For L107V, the “effect of a mutation on the interaction” value is on record as “with no effect”.

A further test covers variants of B4. The following applies: with PSD4, Q8NDX1-2.
Turning to R238W, the “effect of a mutation on the interaction” value was “with no effect”.

Variants of B5 are the subject of the next test. The following applies: with ehmt2_human EHMT2, Q96KQ7.
Sequence of ehmt2_human EHMT2, Q96KQ7 (Q96KQ7 whole entry): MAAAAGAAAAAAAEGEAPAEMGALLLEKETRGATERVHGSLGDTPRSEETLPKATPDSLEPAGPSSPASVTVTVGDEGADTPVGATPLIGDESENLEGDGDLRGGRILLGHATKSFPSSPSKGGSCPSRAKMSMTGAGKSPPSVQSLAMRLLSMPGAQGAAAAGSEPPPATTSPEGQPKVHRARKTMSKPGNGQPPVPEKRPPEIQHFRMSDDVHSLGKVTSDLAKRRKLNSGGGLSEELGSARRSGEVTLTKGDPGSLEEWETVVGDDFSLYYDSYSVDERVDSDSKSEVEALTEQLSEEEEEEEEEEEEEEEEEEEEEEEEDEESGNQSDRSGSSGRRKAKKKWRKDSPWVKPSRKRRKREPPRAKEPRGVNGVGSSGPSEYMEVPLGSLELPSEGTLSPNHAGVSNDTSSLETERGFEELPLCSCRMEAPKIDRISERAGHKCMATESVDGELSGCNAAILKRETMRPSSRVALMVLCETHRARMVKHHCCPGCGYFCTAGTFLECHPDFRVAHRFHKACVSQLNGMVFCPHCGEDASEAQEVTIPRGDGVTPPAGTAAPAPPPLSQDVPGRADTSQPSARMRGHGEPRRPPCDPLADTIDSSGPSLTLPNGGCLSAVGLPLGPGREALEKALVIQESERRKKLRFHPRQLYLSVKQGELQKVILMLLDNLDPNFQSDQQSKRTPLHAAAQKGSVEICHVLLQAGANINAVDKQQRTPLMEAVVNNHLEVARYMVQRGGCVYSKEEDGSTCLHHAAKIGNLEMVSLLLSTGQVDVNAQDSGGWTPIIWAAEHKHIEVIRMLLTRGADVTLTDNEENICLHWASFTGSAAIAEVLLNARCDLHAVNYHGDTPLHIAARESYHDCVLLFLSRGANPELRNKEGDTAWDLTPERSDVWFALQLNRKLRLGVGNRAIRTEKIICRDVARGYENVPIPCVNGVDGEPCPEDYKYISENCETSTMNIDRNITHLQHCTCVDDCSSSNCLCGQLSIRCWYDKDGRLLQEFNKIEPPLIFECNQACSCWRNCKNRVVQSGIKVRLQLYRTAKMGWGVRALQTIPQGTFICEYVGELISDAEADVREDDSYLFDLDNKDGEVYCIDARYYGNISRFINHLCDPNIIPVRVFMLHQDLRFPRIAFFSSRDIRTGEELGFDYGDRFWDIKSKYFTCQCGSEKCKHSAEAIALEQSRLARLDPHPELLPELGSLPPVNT
As to N223S, the “effect of a mutation on the interaction” value is given as “with no effect”.
